From the DeepSol protein solubility set come the findings set out here.

The nature of the series: soluble on expression in E. coli; label from the status in PepcDB or PDB records.
“MMKFKKCLLPVAMLASFTLAGCQSNADDHAADVYQTDQLNTKQETKTVNIISILPAKVAVDNSQNKRNAQAFGALIGAVAGGVIGHNVGSGSNSGTTAGAVGGGAVGAAAGSMVNDKTLVEGVSLTYKEGTKVYTSTQVGKECQFTTGLAVVITTTYNETRIQPNTKCPEKS”: the “soluble on expression in E. coli” value is listed as “not soluble”.
For the sequence “MMKITDEKAEDVNLSTIKVVKRDGRLVTFDDQKIYDALIKAEQKIHDQVTPLTHQKVQSIVADVNREIAERFTNNVKIYEIQNIVEHTLLSNNEYALAEEYIHYRTQRDFERSKATD”, the “soluble on expression in E. coli” value was “not soluble”.
Next, “MMKKIKILSLLVCLIALFTACHDEEDKTNYGSRTVLVYIAGDNSLSRFASEDLNEMIEGMQSVDDNHNNLLVYMDKGSNPKLIRLRKDKDVVVQDVIATYDAQNSVDVDVMKNVFTTAFSHYPADSYGVVFWSHGDGWLPYNNPSTRWWGQDTGNGDNRMNIPDLNEALSVAPHFDFILFDACYMQSVEVVYQLRNRADYFIGSPTEIPGPGAPYEVVVPALFAVNSPAVSIAENYYSVYAKKYNSTGAGISNENWTGGVSISVIKSSELSALAAATRDVLQTAVSMQQSHNIDISSILCYDPLRENNYHDLMGLMQSIQGNSQAFNHYKEMYKNAVIWKNTTDNNYCTYSSGYGKMVSMDGFEGVSTYILRENNSSQEKYYRQFVEWYSAADWDSVDWLEHHHHHH”: “not soluble”; “MMKKLFLDTHSASGEIKLTDGLLYWFPQFLTPIQADQAFQQMLTHLDWQQKSIRLFGKSVLQPRLIAWYGEKGYRYSGLSLSAQPFPPPLLTLKTQCEQAAQAPFNSVLANLYRDGQDSMGWHQDNEPELGSNPVIASLSLGESRRFLLRHHKDHALQVECELNHGDLLIMAGNTQHFWQHAIPKTRQTKQTRINLTFRNILLEHHHHHH”: “soluble”; “MMKKYLISLAKDQQRREQFFTQADTADFQVFDAVNTMQQEWDSLAVKYDITQFAQRYQRSVTKGEIGCTLSHLGVYQWIVADPQIGDNDYCLVCEDDALFNQDVQSSLTQLLSQNVHADIVLVGQSKIFGFDDAMLEIEYPTTFAPQMVAIGNSIYRYAYPYKNYYAGTVAYLIKKSTARKLVSITDLPFWLADDFILFEQQFGLDIMVVRPLMAIENPALCSNLETARASTQQALSKKLLKYPFKKWLAIQRNIGLKNDQCGNLEHHHHHH”: “not soluble”.
Consider “MMKLKFYLVYLWYKVLLKLGIKTDEIYYIGGSEALPPPLTKEEEEVLLNKLPKGDQAARSLLIERNLRLVVYIARKFENTGINIEDLISIGTIGLIKAVNTFNPEKKIKLATYASRCIENEILMHLRRNNKNRSEVSFDEPLNIDWDGNELLLSDVLGTDDDIITKDLEATVDRHLLMKALHQLNDREKQIMELRFGLAGGEEKTQKDVADMLGISQSYISRLEKRIIKRLRKEFNKMV”, for which the “soluble on expression in E. coli” value is recorded as “not soluble”.
Next, “MMKNDEQDDVDVVNVPTNIDFQCNLCEYVGKSDRSLSAHKRHRHPRPEGQEDDKKPRGRPKKYEDSPVPLQRVTTKQLLGGRKRPKTIVECVDDSAIRTDKEASRLHGLGIIDEETSLGDYVRRGANYQLMGGSDMNLDGNSMIVGQEVVIDHEEDEENDDSPMLDSIPAGKNLERRKIRKSGRACASIRLSAKNRQISRSSHMRKVHPNEHAERKRNAPGYNSNGTYNCHFPLCQWRGWSRSTRSTHLRKAHPEWRPDDNRVMTVLSCFYCKSSFHTYAQLADHTITHGGLALMISQSFDNKHHFSAWLQQMERVYSVTFERSEFGSDPELQDLHNYVLHCDCVGGRGEQLATDSRAYIDQKHTNFKFSGAYIYQKHNFLKRRHPQLLTRNKNDCCVHLEVREDSEYGPIHVKGTLEHTGHRFGTPLLRMLFEGFTMDHYTTPRSVILMEPLHTNQFQSLREFIEAPSTSTYQNPYFSVDFGDSPEQFSFGYMSDEMQKLWSKYAPGRTITIDSSPLEFGEVDLFQYSVIVTDENYIPKCAMIYVTTDNSRAPHTILRQMKAVEPRPPTIFMVDPSQLWVELIQDLWPTDLDNPESEVTILISEWTLMDYWAAKTEELVKNEFDVFCIVTALRRMLRVEDAHQLYYTIVELFEAFFECGYDGLAEFFDAQLSDMEYFKRWGPLHRTTLTSHAHPTLGASFRILRDWYLNPANMDHDAPRVDQWFSHICQRIEDFNAITNTQTYTLRPLDPPHKFFYTTVEDEEGEEAEHENPFKNPQILMYDDDGDEVVVEEEIIGHEIDGASELQGSELPDEEVIYETYEDYPEYGGHYDLEEEHKMHHNMRLEEEELQQHLHEQQKPEHLSHQTEELGELQDHHHHHHHHLDEDPEATAEGPSEIVEHDDEEEQEDLVDVEMVDDQHEQHEIPAKIPPHRQRLYQKLDPMPVISHELPRSPSRRIRIPTRKIQELDQESVLPPPPRRETTRSVVRSRKRRDRFAELRDCPPEVMRAIAAHAIAYDGRKKEQRPIVYVPRQAKMAMSSTPTAPTPPEDYDGPPGHQMTTILQHQRQAKQEEEEEQWSGEYDDELHEQEHDPATSSPPPSLLPHTGPSEIVHHEEEVHMMLPEEEADLMDDDDQQPCTSASMYR”: “soluble”; “MMKPIAVSQLSDNFFETISKEWMLVTAGNKNAFNTMTANWGGIGFLWNKPVVYVFIRPERYTFGFMEKSDYFTLSFLGEENKSIHKICGSKSGREVDKIKETGLKPMITDKGNVLFEQGRLSLECRKLYTDVLRKENFLDPSVYEQWYTTHGGLHHVYVAEITSAWIKD”: “not soluble”; “MMKRNILAVIVPALLVAGTANAAEIYNKDGNKVDLYGKAVGLHYFSKGNGENSYGGNGDMTYARLGFKGETQINSDLTGYGQWEYNFQGNNSEGADAQTGNKTRLAFAGLKYADVGSFDYGRNYGVVYDALGYTDMLPEFGGDTAYSDDFFVGRVGGVATYRNSNFFGLVDGLNFAVQYLGKNERDTARRSNGDGVGGSISYEYEGFGIVGAYGAADRTNLQEAQPLGNGKKAEQWATGLKYDANNIYLAANYGETRNATPITNKFTNTSGFANKTQDVLLVAQYQFDFGLRPSIAYTKSKAKDVEGIGDVDLVNYFEVGATYYFNKNMSTYVDYIINQIDSDNKLGVGSDDTVAVGIVYQF”: “soluble”.
Regarding “MMMMRAFIAENVRGIYAFDEDGKLVGKRYFTDKPEKILDGLLKGELVKDLEEFLNELREKGYDEFIFEHPELSRKAKELGFNATTEFPNLAGERLRSNPEEFLGENWFDDYYNVGVALTRMRIQEQSGARDKMVIQAIEALDDVDKVINLLVSRLREWYSLHFPELDEILPRHPQYVAFVKAIGHRDNVDEEKLRELGLSDEKIKKIIEAKEKTMGAWMDETDIAIVQHFAEEIDRLYKLRKELEDYIDKAMDDVAPNLKALVGAKLGARLISLAGGLKELAMLPSSTIQVLGAEKALFRHLRTGAKPPKHGVIYQYPAINRSPWWQRGKIARALAGKLAIAARVDYFSGEYIAEELKKELEARIKEIKEKYPRPPKRRKEERKGRKPWKEKKKKKKKKKGGRR”, the “soluble on expression in E. coli” value was “soluble”.
“MMNSTNKLSVIIPLYNAGDDFRTCMESLITQTWTALEIIIINDGSTDNSVEIAKYYAENYPHVRLLHQANAGASVARNRGIEVATGKYVAFVDADDEVYPTMYETLMTMALEDDLDVAQCNADWCFRETGETWQSIPTDRLRSTGVLTGPDWLRMGLSSRRWTHVVWMGVYRRDVIVKNNIKFIAGLHHQDIVWTTEFMFNALRARYTEQSLYKYYLHNTSVSRLHRQGNKNLNYQRHYIKITRLLEKLNRNYADKIMIYPEFHQQITYEALRVCHAVRKEPDILTRQRMIAEIFTSGMYKRLITNVRSVKVGYQALLWSFRLWQWRDKTRSHHRITRSAFNLRLEHHHHHH”: the “soluble on expression in E. coli” value is recorded as “not soluble”.
Turning to “MMQRRAVFGLFLLPLARGQGTCAPTPALTQGPYYLRDVPQREDLREGLPGVPLRLLLRVRDRACRPLQGARVDLWHTDALGRYSGVNAPGTFCRGWQATDERGEVAFLTLFPGWYPSRTPHLHLRVEAGGRVFATQLFFPEEVQRQVYALPPYRERGMPRVNNRQDGLFRADLLLRLEREGEAYRGAFVLTLPG”, the “soluble on expression in E. coli” value is “soluble”.
Regarding “MMRGGMGNMNNMMKQMQKMQKEMAKAQEELGEKTVEGTAGGGMITVIANGHKQILEVKVKEEVVDPEDIEMLQDLVLAATNDALKKADELSNSTMGKFTKGLNLPGGMF”, the “soluble on expression in E. coli” value is “soluble”.
Next, “MMTKNAYAFVVIEESVMVFKRTKDEGLMPIFEGFVPLKEGFLKSFKERCNLEFLENLDLLFLYDKPSAHEIFSLCKELKNSIWDRKLVVALVEALEGFKDWNLSLKIEDKRSNSLGNGTKKLLTNADLGSDYKTIVIDSMKTYHQSQQEKYKRERGETLEVRPTTPPSYGGGSIRISGDKKPDFDEENF”: “not soluble”; “MMTKYGVVGTGYFGAELARFMSKVEGAKITAIYDPVNAAPIAKELNCVATATMEALCSHPDVDCVIIASPNYLHKAPVIAAAKAGKHVFCEKPIALNYQDCKDMVDACKEAGVTFMAGHVMNFFHGVRHAKALIKAGEIGEVTQVHTKRNGFEDVQDEISWKKIRAKSGGHLYHHIHELDCTLFIMDETPSLVSMAAGNVAHKGEKFGDEDDVVLITLEFESGRFATLQWGSSFHYPEHYVLIEGTTGAILIDMQNTAGYLIKAGKKTHFLVHESQAEDDDRRNGNISSEMDGAIAYGKPGKRTPMWLSSIMKLEMQYLHDVINGLEPGEEFAKLLTGEAATNAIATADAATLSSNEGRKVKLTEILG”: “not soluble”; “MMTQIIHTEKAPAAIGPYVQAVDLGNLVLTSGQIPVNPATGEVPADIVAQARQSLENVKAIIEKAGLTAADIVKTTVFVKDLNDFAAVNAEYERFFKENNHPNFPARSCVEVARLPKDVGLEIEAIAVRK”: “soluble”.
As for “MMVWTPVNNKMFETFSYLPPLTDEQIAAQVDYIVANGWIPCLEFAEADKAYVSNESAIRFGSVSCLYYDNRYWTMWKLPMFGCRDPMQVLREIVACTKAFPDAYVRLVAFDNQKQVQIMGFLVQRPKTARDFQPANKRSV”, the “soluble on expression in E. coli” value was “soluble”.
Next, “MNAACPDCGLKFQCLCSAVPSFHAPFQLSLLTHDNEWQRETNTGRWLVKSMAECQAYTWSRVAANTELQARLTQPNARSFLVYPSEESVELTDALRSLREDEIAHFIVLDATWQEARKMERKSPWLADVPRVHLTTDHVSAYRLRRNQQPGNLCTLEVGLMLLRHFNAEASAEALEQFYHYSMNAFKADKSGHRWIERLEHHHHHH”: “not soluble”.
“MNAPDKTGTDRRAVPAAVDLDALIRAEHRDPFSILGPHDDGKGGQYVRAYLPAALSVRLLARDDGRELAELHMSDVPGFFVGHLEQPQPYLLKINWAGGEQITEDPYSYGPLLG”: the “soluble on expression in E. coli” value was “not soluble”.
Next, “MNASSAPQQQQQQQQPQQGQAPQQQQQGPPQHQYQQQRPFHGRVQNHMRGSGPFGNSNGYGRYTAPRGDQQHHDSTPLSSVSSRRVPLPPTSQHRASSNFNTTPSSTNLYIRGLMPNTNDDLLREMCSKYGNIASTKAIMDKATNNCKGYGFVDFESPQAAAAAVDGLNTEGVQAQMAKLQQQEQDPTNLYIANLPLDFTEQMLETELNKFGMVISTRILRTPDNQSRGVGFARMDSKEKCEVIISALNGGRFDTMSKEGPALLIKQADTGRKSKVGSTSRHPSFQQFSSLGGPTAFLNGQHSMNNPEMLQRMQYPQVYQSYYGYHPAAVYQQHYDVNSLASQMGGMHVGGGNPQANGGGDMYGAHMYGQNAGGQGGQGVGQGGQGGNQQFYNPNNGRNKKYFQPMNPQ”: “not soluble”; “MNDETPRCPYNSLYKPLNLIKSKPDGCFKHNGQCTYGKNLVESVDDGNSRTPYNSIYEPLSLNKPKPDGRSSNGKKPVDNEYVNLPVLSEEQKLADKLAAKLRKLEVKEPKSKKRGSKERKKKKSEPVESTYESLATIEGSTNYSGPVTTESLESNVKFHHASQTAYIGVYSSADAEAQVKNRGEFALYHLFEVGNGIDHLTATLPFGGLWIPNRSQTLLAQSTRSILQIVRIDSDETRGHLL”: “not soluble”.
